Changes are numbered by the printed parent chain. Names and notes keep the numbering of the source.
B1: RaaS (Rv1219c) R144A mutant (natural protein)
chain: MRSADLTAHARIREAAIEQFGRHGFGVGLRAIAEAAGVSAALVIHHFGSKEGLRKACDDFVAEEIRSSKAAALKSNDPTTWLAQMAEIESYAPLMAYLVRSMQSGGELAKMLWQKMIDNAEEYLDEGVRAGTVKPSRDPRARAAFLAITGGGGFLLYLQMHENPTDLRAALRDYAHDMVLPSLEVYTEGLLADRAMYEAFLAEAQQGEAHVG
B2: RaaS (Rv1219c) Y174A mutant (natural protein)
chain: B1 chain with A144R, Y174A
B3: Pr14F/Pr14R (ATTO 647N) (dsDNA)
DNA 1: GGGATGAACGTACGTTTAATATCCTGAACATGCGTTCAG
DNA 2: GGGCTGAACGCATGTTCAGGATATTAAACGTACGTTCAT

Tests used:
[1] = molecular target: the molecule itself; assay: small-angle X-ray scattering; protein alone in solution at 1 and 3 mg/ml, data extrapolated to infinite dilution; apparent molecular mass from I(0)
[2] = molecular target: T1, RaaS Y174A (Mycobacterium tuberculosis, UniProt O86312 1-212, Y174A); assay: fluorescence anisotropy; 4 nM DNA; FA: 50 mM Tris-HCl pH 8.5, 150 mM NaCl, temperature not stated; EMSA: 50 mM Tris-HCl pH 8.0, 1 mM EDTA, 50 mM NaCl, 4% glycerol, sheared salmon sperm DNA (printed as 1 g per reaction), 10 min, room temperature; details: protein: recombinant; chain copies: 2
T1 sequence: B1 chain with A144R, Y174A

[3] = molecular target: T2, RaaS R144A (Mycobacterium tuberculosis, UniProt O86312 1-212, R144A); assay: as above; details: protein: recombinant; chain copies: 2
T2 sequence: B1 chain

[4] = molecular target: T3, RaaS R140A (Mycobacterium tuberculosis, UniProt O86312 1-212, R140A); assay: fluorescence anisotropy; 4 nM DNA; details: protein: recombinant; chain copies: 2
T3 sequence: B1 chain with R140A, A144R

Binder | stoichiometry N [1] | Kd [2] [nM] | Kd [3] [nM] | Kd [4] [nM]
B1 | 2 |  |  | 
B2 | 2 |  |  | 
B3 |  | 611 ± 120 | 129 ± 70 | 654 ± 300

Source: publication PMC4155686, “Oleoyl Coenzyme A Regulates Interaction of Transcriptional Regulator RaaS (Rv1219c) with DNA in Mycobacteria*” (The Journal of Biological Chemistry, 2014)
